The text below walks through data of article PMC4621513.

The experiment concerns the target APOBEC3G (A3G) protein, Q9HC16. Kind of experiment: AFM topographic imaging (protein volume); A3G mixed 2:1 with hybrid DNA substrate (418 bp duplex with 69 nt ssDNA overhang, deaminase specific or nonspecific) in 50 mM HEPES pH 7.5, 100 mM NaCl, 5 mM MgCl2, 1 mM DTT, 15 min at 37 °C; deposited on APS-mica, imaged in air; protein volume converted to mass; stoichiometry of A3G on the ssDNA. The note with it: remark: other sources report otherwise.

As a reminder, the stoichiometry N is the number of molecules, sites or subunits per partner or assembly.

B1: APOBEC3G (A3G) protein, Q9HC16 1-384 (enzyme)
chain: MKPHFRNTVERMYRDTFSYNFYNRPILSRRNTVWLCYEVKTKGPSRPPLDAKIFRGQVYSELKYHPEMRFFHWFSKWRKLHRDQEYEVTWYISWSPCTKCTRDMATFLAEDPKVTLTIFVARLYYFWDPDYQEALRSLCQKRDGPRATMKIMNYDEFQHCWSKFVYSQRELFEPWNNLPKYYILLHIMLGEILRHSMDPPTFTFNFNNEPWVRGRHETYLCYEVERMHNDTWVLLNQRRGFLCNQAPHKHGFLEGRHAELCFLDVIPFWKLDLDQDYRVTCFTSWSPCFSCAQEMAKFISKNKHVSLCIFTARIYDDQGRCQEGLRTLAEAGAKISIMTYSEFKHCWDTFVDHQGCPFQPWDGLDEHSQDLSGRLRAILQNQEN
B1 came in with a stoichiometry N of 2.
